In PMC12697983 (PLOS Pathogens, 2025):

B1: 1C4 Fab (Fab, V domains shown)
VH: QIQLVQSGPELKKPGETVKISCKASGYTFTDYGLNWVKQAPGKGLKWMGWINTYSGEPTYNDEFRGRFAFSLETSTITAYLKINNLKNEDTATYFCARGGNWDWYFDVWGAGTTVTVSS
VL: DIVLTQSPATLSVTPGDNVSLSCRASQIISNNLHWYQQKSHESPRLLIKYASQSISGIPSRFSGSGSGTDFTLSINSVETEDFGMYFCQQSNTWPLTCGSGTKLELN
B2: 1C4 (murine monoclonal antibody, IgG format) (antibody, V domains shown)
VH: B1 VH
VL: B1 VL

Legend:
[1] = target: SARS-CoV-2 Omicron BA.5 spike ectodomain trimer, prefusion-stabilised (BA.5-S6P) (SARS-CoV-2 Omicron BA.5, N440K | proline substitutions at 986 and 987 | proline substitutions at 986 and …); test: cryo-EM structure; settings: both partners purified
[2] = target: spike protein on native SARS-CoV-2 virions (Victoria variant) (SARS-CoV-2, Victoria isolate (entry: …, UniProt P0DTC2, strain)); test: cryo-EM imaging of virions; settings: one partner purified

| Binder | stoichiometry N [1] [Fabs per spike trimer] | binding result [2] |
| --- | --- | --- |
| B1 | 3 |  |
| B2 |  | binds |
